Key:
[1] = tested on: α-amylase from Bacillus licheniformis; experiment: Hydrolysis of protease resistant α-amylase (SDS-PAGE); format: biochemical; conditions: 60 minutes
Method: As an example of the enzymatic activity of the 8-fold mutant we tested the hydrolysis of protease resistant α-amylase from Bacillus licheniformis by the 8-fold mutant. B. licheniformis α-amylase (1 mg/ml) in 50 mM MOPS, pH 7.0, 5 mM CaCl2, 0.01% Triton X-100 was incubated with purified TLP-ste (1 μg/ml), the 8-fold mutant or without protease for 60 minutes at the temperature indicated. The reaction volume was 500 μL. […] Precipitates (only observed in the 100° C. samples) were collected by centrifugation and redissolved in 500 μL 6 M Urea. Both supernatants and redissolved precipitates were subjected to standard SDS-PAGE, including pre-treatment with sample loading buffer (5 minutes at 100° C.). The samples were identical in size (20 μL supernatant and 20 μL dissolved precipitate). Gels were stained with Coomassie-brilliant blue.

[2] = tested on: casein; experiment: Hydrolysis of 10% (w/v) casein compared with commercial enzyme preparations; format: biochemical; conditions: casein 10% w/v
Excerpt: In industrial applications enzymes are used for the hydrolysis of protein preparations derived from different sources. Here we show the results of a comparative study in which the rate and quality of hydrolysis of casein and yeast protein preparations by the 8-fold mutated TLP-ste variant was compared with that obtained by the hydrolysis using 3 different enzyme preparations that are used for these purposes in industry. The hydrolysis conditions were chosen such that they were optimal for each of the enzyme preparation under study. The hydrolysis products were separated in an acid-soluble and a not acid-soluble fraction. The amount of acid-soluble protein material formed upon hydrolysis was determined by means of measuring the absorbance at 275 nm, whereas the composition of the acid-insoluble hydrolysis products was studied using SDS-PAGE.
Substrate (10% w/v of casein or yeast protein preparation) was incubated in 50 mM Tris-MES, 5 mM CaCl2, pH 6.5 at 50° C. (Enzyme I, Favourzyme™ 1000L); 50 mM Tris-MES, 5 mM CaCl2, pH 6.0 at 60° C. (Enzyme II, BioProtease N100L); 50 mM Tris-MES, 5 mM CaCl2, pH 8.0 at 60° C. […] The amount of acid-soluble protein released by hydrolysis was determined by measuring the absorbance of the samples at 275 nm. The acid precipitated proteins were redisolved in 6 M urea and subsequently analysed by SDS-PAGE (15% running gel).

[3] = format: physicochemical
Method: Stabilities of TLPs were determined at different temperatures. Shown are the first-order inactivation curves for TLP-ste incubated at 80° C. (Δ) and 90° C. (+), thermolysin at 90° C. (Δ), and the 8-fold mutant at 100° C. (●), respectively. […] Samples, taken at the various time points, were quickly cooled on ice (15 s) and transferred to 50° C. to prevent cold denaturation. Residual activity was determined using casein (0.8%) as a substrate in 50 mM TrisHCl (pH 7.5), 5 mM CaCl2 as described previously (Eijsink, V. G. H., Veltman, O. R., Aukema, W., Vriend, G. & Venema, G. Nature Struct. Biol. 2, 374-379 (1995)).

B1: 8-fold mutant: TLP-ste with A4T, T56A, G58A, T63F, S65P, A69P and a disulfide bridge G8C-N60C (protein)
chain: VAGTSTVCVGRGVLGDQKYINTTYSSYYGYYYLQDNTRGSGIFTYDGRNRTVLPGSLWADADCQFFAPYDAPAVDAHYYAGVVYDYYKNVHGRLSYDGSNAAIRSTVHYGRGYNNAFWNGSQMVYGDGDGQTFLPFSGGIDVVGHELTHAVTDYTAGLVYQNESGAINEAMSDIFGTLVEFYANRNPDWEIGEDIYTPGVAGDALRSMSDPAKYGDPDHYSKRYTGTQDNGGVHTNSGIINKAAYLLSQGGVHYGVSVNGIGRDKMGKIFYRALVYYLTPTSNFSQLRAACVQAAADLYGSTSQEVNSVKQAFNAVGVY
degradation of B. licheniformis α-amylase ([1]; 80° C. and lower): No significant degradation | hydrolysis of B. licheniformis α-amylase ([1]; 100° C.): completely hydrolysed | range of hydrolysis products (SDS-PAGE) versus the other enzymes [2]: much broader range of hydrolysis products | rate of hydrolysis and acid-soluble protein products versus the other enzyme preparations ([2]; enzyme 0.05% v/v, pH 7.0, 90° C.): more rapidly and that more acid-soluble protein products are produced | half life at 100° C. [3]: ~3 h | half-life at 100° C. relative to the wild-type [3]: more than 1000 times | half-life 80° C. ([3]; buffer, pH 5.3): stable | half-life 90° C. ([3]; buffer, pH 5.3): stable | half-life 100° C. ([3]; buffer, pH 5.3): 2.83 h
